In US20020040062A1, “Protein kinase C activators and their use in decreasing expression of cell antigens” (The Trustees of Columbia University, priority 1993, published 2002):

What was measured:
Format in all cases: cell-based, human
[1] = tested on: BCA 225; assay: BCA 225 shedding into culture medium, double-determinant ELISA; conditions: T47D cells, 72 hr, 500 units/ml IFN-β or 50 units/ml IFN-γ, presence or absence of 1.0 μg/ml H-7
Description: (§1) After appropriate incubation times with the various compounds cell lysates were prepared from T47D cells. Cells were washed 3× in PBS, pH 7.6, pelleted and incubated for 1 hr at room temperature in 20 mM Tris HCl, pH 7.4, with PMSF. Cultures were then homogenized with a Teflon homogenizer, centrifuged at 3000 RPM for 10 min at 4° C. and the supernatant was mixed 1:2 with 20 mM Tris-HCl, pH 7.4, containing 0.5% NP40 (Sigma). After 1 hr at 4° C., the mixture was spun at 3000 RPM for 10 min and the supernatant was passed through an EXTRACTIGEL column (Pierce, Ill.) to remove excess detergent. Protein concentration was determined by the BCA micro-method (Pierce, Ill.). BCA 225 levels in cell extracts and supernatants from control and treated T47D cells were quantitated using a double-determinant ELISA assay. Briefly, Cu18 monoclonal antibody coated Nunc Immunoplates (Nunc, Denmark) were blocked with 1% BSA (Sigma, RIA Reagent Grade) and incubated with a 1:2 dilution of supernatant in duplicate. Standard values for a partially purified BCA 225 preparation were used at a range of 0 to 10 μg/ml in RPMI 1640 plus 10% FBS (T47D growth medium). After 2 hr incubation and three washings with PBS 0.1% Tween 20 a Cu46 monoclonal antibody conjugated to peroxidase was applied to the plate, incubated for 2 hr, washed 6× in PBS 0.1% Tween 20 and the reaction was developed with […] OPD (Sigma, St. Louis) and 4 μl of 30% H2O2 in McIlvans buffer, pH […]. The plates were read on a Dynatech Elisa reader and a linear standard curve was generated and used to calculate the relative amount of BCA 225 in cell lysates and shed into the culture medium. Results were adjusted to ng BCA 225 per mg of protein, or per 1×10^6 cells. Replicate samples varied by ≦10% and replicate experiments varied by ≦20%.

[2] = tested on: HLA Class II antigens; assay: FACS analysis of HLA Class II antigen surface expression in T47D cells
From the text: (§2) IgG1 murine monoclonal antibody Cu18 and Cu46 recognize two different epitopes of a highly restricted breast carcinoma associated glycoprotein of Mr 225,000 to 250,000 (BCA 225). This TAA is expressed intracytoplasmically and on the membrane of 94% of breast tumors tested and in the T47D human breast carcinoma cell line. BCA 225 is shed into the culture medium by T47D cells and into the sera of breast cancer patients. IgG2a monoclonal antibody L243 (anti HLA Class II-DR) recognizes a monomorphic HLA Class II-DR-α epitope (ATCC M355). Monoclonal antibody CL203.4 [40], which recognizes ICAM-I, was kindly provided by Dr. S. Ferrone, New York Medical College, NY. The c-erbB-2 monoclonal antibody which recognizes the extracellular domain of c-erbB-2 was obtained from Triton Biosciences, Inc., Alamedia, Calif. Monoclonal antibodies Cu18 and Cu46 were used at 0.05 μg/ml and monoclonal antibodies interacting with HLA Class II-DR, ICAM-1 and c-erbB-2 were used at 10 μg/ml.
(§3) T47D cells treated with the various compounds were analyzed by flow cytometry using appropriate monoclonal antibody concentrations as described previously. Briefly, 1×10^5 cells were incubated with the test antibody for 30 min at 4° C., washed 3× with PBS and incubated with a goat a mouse F (ab)2 FITC conjugated test antibody at a 1:40 dilution for 30 min at 4° C. Cells were then washed 3× with PBS and analyzed on a FACStar (Beckon Dickinson, Mountain View, Calif.) or a Coulter Epics IV FACS (Coulter, Hialeah, Fla.). Results are expressed as mean fluorescence intensity (MFI) units which were determined as described previously. MFI=(mean channel fluorescence in fluorescence positive antibody-binding cells×% of fluorescence positive antibody-binding cells)−(mean channel fluorescence in unstained cells×% of fluorescence positive cells in the unstained population). All studies were performed a minimum of three or four times with duplicate samples in each experiment.

[3] = tested on: BCA 225; assay: BCA 225 synthesis, double-determinant ELISA of T47D cell lysates; conditions: T47D cells, 72 hr, 500 units/ml IFN-β or 50 units/ml IFN-γ, presence or absence of 1.0 μg/ml H-7
Description: as §1

[4] = tested on: BCA 225; assay: FACS analysis of BCA 225 surface expression in T47D cells; conditions: 72 hr, 500 units/ml IFN-β or 50 units/ml IFN-γ, presence or absence of 1.0 μg/ml H-7
From the text: as §2, with “μg/ml. For each experiment, isotype matched control backgrounds (IgG for Cu18, Cu46 and ICAM-1, IgG2a for HLA Class Ii and IgG2b for c-erbB-2) were subtracted from the experimental results. Background from antimouse IgG FITC antibody was also subtracted from experimental results. Applicants never observed backgrounds higher than 2% of total cells for isotypic mouse IgG or higher than 5% for antimouse IgG FITC.” for “μg/ml.”
as §3, with “experiment. Replicate samples within individual experiments varied by ≦10% and variation between experiments were generally ≦20%.” for “experiment.”

B1: IFN-γ: recombinant human immune interferon produced in Escherichia coli (protein, UniProt P01579 24-161, looked up)
Interferon gamma: QDPYVKEAENLKKYFNAGHSDVADNGTLFLGILKNWKEESDRKIMQSQIVSFYFKLFKNFKDDQSIQKSVETIKEDMNVKFFNSNKKKRDDFEKLTNYSVTDLNVQRKAIHELIQVMAELSPAAKTGKRKRSQMLFRG
BCA 225 Shedding [1]: 64 ng/ml/10^6 cells
BCA 225 Shedding, relative change in comparison with controls (equivalent to 1.0) [1]: 1.4
fold increase in HLA Class II expression ([2]; 500 units/ml IFN-α, IFN-β or IFN-γ as in Table 3): 69 fold
HLA Class II relative increase in expression versus untreated controls (equivalent to 1.0) ([2]; 72 hr, 500 units/ml IFN-β or 50 units/ml IFN-γ, presence or absence of 1.0 μg/ml H-7): 69.2
Antigenic Expression (MFI) HLA Class II ([2]; 72 hr, 500 units/ml IFN-β or 50 units/ml IFN-γ, presence or absence of 1.0 μg/ml H-7, Coulter Epics IV FACS): 202,102 MFI
BCA 225 Synthesis [3]: 722 ng/mg protein
BCA 225 Synthesis, relative change in comparison with controls (equivalent to 1.0) [3]: 3.2
BCA 225 Expression [4]: 9,069 MFI
BCA 225 Expression, relative change in comparison with controls (equivalent to 1.0) [4]: 3.2
